This is an account of results in the supplement of paper PMC11246515.

± gives the standard deviation of the averaged measurements.

The data set is described as follows: total protein half-life in vivo (active degradation + dilution); higher = more stable protein.
Where [1] appears, read: E. coli NCM3722 delta-clpP delta-lon delta-hslV, growth: N-lim chemostat, doubling time 6 h.
Setting [2] is: E. coli NCM3722 delta-clpP, growth: N-lim chemostat, doubling time 6 h.
[3] abbreviates: E. coli NCM3722 delta-hslV, growth: N-lim chemostat, doubling time 6 h.
Setting [4] is: E. coli NCM3722 delta-lon, growth: N-lim chemostat, doubling time 6 h.
[5] abbreviates: E. coli NCM3722 delta-smpB, growth: N-lim chemostat, doubling time 6 h.
[6] abbreviates: wild type E. coli NCM3722, growth: C-lim chemostat, doubling time 3 h.
Where [7] appears, read: wild type E. coli NCM3722, growth: C-lim chemostat, doubling time 6 h.
[8] abbreviates: wild type E. coli NCM3722, growth: N-lim chemostat, doubling time 6 h.
Setting [9] is: wild type E. coli NCM3722, growth: N-lim chemostat, doubling time 12 h.
The mark [10] stands for this setting: wild type E. coli NCM3722, growth: P-lim chemostat, doubling time 12 h.
Setting [11] is: wild type E. coli NCM3722, growth: P-lim chemostat, doubling time 6 h.
[12] abbreviates: wild type E. coli NCM3722, growth: C-lim chemostat, doubling time 12 h.

As to “MRKQWLGICIAAGMLAACTSDDGQQQTVSVPQPAVCNGPIVEISGADPRFEPLNATANQDYQRDGKSYKIVQDPSRFSQAGLAAIYDAEPGSNLTASGEAFDPTQLTAAHPTLPIPSYARITNLANGRMIVVRINDRGPYGNDRVISLSRAAADRLNTSNNTKVRIDPIIVAQDGSLSGPGMACTTVAKQTYALPAPPDLSGGAGTSSVSGPQGDILPVSNSTLKSEDPTGAPVTSSGFLGAPTTLAPGVLEGSEPTPAPQPVVTAPSTTPATSPAMVTPQAVSQSASGNFMVQVGAVSDQARAQQYQQQLGQKFGVPGRVTQNGAVWRIQLGPFASKAEASTLQQRLQTEAQLQSFITTAQ”, the “total protein half-life in vivo” value under setting [1] worked out at 5.56 ± 0.12 h; the “total protein half-life in vivo” value under setting [2] turned out to be 5.78 ± 0.37 h; the “total protein half-life in vivo” value under setting [3] is 6.5 ± 0.56 h; the “total protein half-life in vivo” value under setting [4] came out at 6.29 ± 0.38 h; the “total protein half-life in vivo” value under setting [5] stood at 5.65 ± 0.12 h; the “total protein half-life in vivo” value under setting [6] came to 3.1 ± 0.15 h. Further, the “total protein half-life in vivo” value turned out to be 5.89 ± 0.42 h under setting [7], 6.17 ± 0.07 h under setting [8], 13.4 ± 2.2 h under setting [9] and 12.38 ± 0.038 h under setting [10].

With “MFKRRYVTLLPLFVLLAACSSKPKPTETDTTTGTPSGGFLLEPQHNVMQMGGDFANNPNAQQFIDKMVNKHGFDRQQLQEILSQAKRLDSVLRLMDNQAPTTSVKPPSGPNGAWLRYRKKFITPDNVQNGVVFWNQYEDALNRAWQVYGVPPEIIVGIIGVETRWGRVMGKTRILDALATLSFNYPRRAEYFSGELETFLLMARDEQDDPLNLKGSFAGAMGYGQFMPSSYKQYAVDFSGDGHINLWDPVDAIGSVANYFKAHGWVKGDQVAVMANGQAPGLPNGFKTKYSISQLAAAGLTPQQPLGNHQQASLLRLDVGTGYQYWYGLPNFYTITRYNHSTHYAMAVWQLGQAVALARVQ”, the “total protein half-life in vivo” value reads like this: under setting [1], 5.38 ± 0.079 h; under setting [2], 5.65 ± 2 h; under setting [5], 5.5 ± 0.089 h; under setting [6], 3.61 h; under setting [8], 5.55 ± 0.14 h; under setting [9], 10.8 h. For the same sequence, the “total protein half-life in vivo” value is, setting by setting: under setting [11], 5.1 h; under setting [10], over 16 h.

As for “MSGLKQELGLAQGIGLLSTSLLGTGVFAVPALAALVAGNNSLWAWPVLIILVFPIAIVFAILGRHYPSAGGVAHFVGMAFGSRLERVTGWLFLSVIPVGLPAALQIAAGFGQAMFGWHSWQLLLAELGTLALVWYIGTRGASSSANLQTVIAGLIVALIVAIWWAGDIKPANIPFPAPGNIELTGLFAALSVMFWCFVGLEAFAHLASEFKNPERDFPRALMIGLLLAGLVYWGCTVVVLHFDAYGEKMAAAASLPKIVVQLFGVGALWIACVIGYLACFASLNIYIQSFARLVWSQAQHNPDHYLARLSSRHIPNNALNAVLGCCVVSTLVIHALEINLDALIIYANGIFIMIYLLCMLAGCKLLQGRYRLLAVVGGLLCVLLLAMVGWKSLYALIMLAGLWLLLPKRKTPENGITT”, the “total protein half-life in vivo” value is 3.09 h under setting [4], 5.32 h under setting [5], 4.1 h under setting [11] and 12 h under setting [10].

Turning to “MESNNGEAKIQKVKNWSPVWIFPIVTALIGAWVLFYHYSHQGPEVTLITANAEGIEGGKTTIKSRSVDVGVVESATLADDLTHVEIKARLNSGMEKLLHKDTVFWVVKPQIGREGISGLGTLLSGVYIELQPGAKGSKMDKYDLLDSPPLAPPDAKGIRVILDSKKAGQLSPGDPVLFRGYRVGSVETSTFDTQKRNISYQLFINAPYDRLVTNNVRFWKDSGIAVDLTSAGMRVEMGSLTTLLSGGVSFDVPEGLDLGQPVAPKTAFVLYDDQKSIQDSLYTDHIDYLMFFKDSVRGLQPGAPVEFRGIRLGTVSKVPFFAPNMRQTFNDDYRIPVLIRIEPERLKMQLGENADVVEHLGELLKRGLRGSLKTGNLVTGALYVDLDFYPNTPAITGIREFNGYQIIPTVSGGLAQIQQRLMEALDKINKLPLNPMIEQATSTLSESQRTMKNLQTTLDSMNKILASQSMQQLPTDMQSTLRELNRSMQGFQPGSAAYNKMVADMQRLDQVLRELQPVLKTLNEKSNALVFEAKDKKDPEPKRAKQ”, the “total protein half-life in vivo” value was determined as 6.4 ± 0.49 h under setting [1]; 7 ± 0.91 h under setting [2]; 6.43 ± 0.21 h under setting [4]; 5.75 ± 0.35 h under setting [5]; 3.341 ± 0.027 h under setting [6]; 7.13 ± 0.87 h under setting [7]. For the same sequence, the “total protein half-life in vivo” value was determined as 12.8 ± 1.1 h under setting [12], 5.99 ± 0.28 h under setting [8], 12.9 ± 0.71 h under setting [9] and 6.06 ± 0.058 h under setting [11].

With “MAMHLNENLDDNGEMHDINVTPFIDVMLVLLIIFMVAAPLATVDVKVNLPASTSTPQPRPEKPVYLSVKADNSMFIGNDPVTDETMITALNALTEGKKDTTIFFRADKTVDYETLMKVMDTLHQAGYLKIGLVGEETAKAK [P0ABV2]”, the “total protein half-life in vivo” value under setting [1] is 2.68 ± 0.35 h; the “total protein half-life in vivo” value under setting [2] is 2.74 ± 0.56 h; the “total protein half-life in vivo” value under setting [5] turned out to be 0.61 h; the “total protein half-life in vivo” value under setting [6] is 1.34 ± 0.17 h; the “total protein half-life in vivo” value under setting [7] is 0.847 ± 0.64 h; the “total protein half-life in vivo” value under setting [12] is 1.88 ± 0.74 h. Moreover, the “total protein half-life in vivo” value runs as follows: under setting [8], 1.12 h; under setting [11], 1.01 h; under setting [10], 2.15 h.

“MKRYTPDFPEMMRLCEMNFSQLRRLLPRNDAPGETVSYQVANAQYRLTIVESTRYTTLVTIEQTAPAISYWSLPSMTVRLYHDAMVAEVCSSQQIFRFKARYDYPNKKLHQRDEKHQINQFLADWLRYCLAHGAMAIPVY [P0ADU7]”: the “total protein half-life in vivo” value under setting [1] was 6.32 ± 0.34 h; the “total protein half-life in vivo” value under setting [2] was determined as 5.73 ± 0.49 h; the “total protein half-life in vivo” value under setting [3] was 1.79 h; the “total protein half-life in vivo” value under setting [4] was 2.11 ± 0.32 h; the “total protein half-life in vivo” value under setting [5] worked out at 2.25 ± 0.22 h; the “total protein half-life in vivo” value under setting [7] was 2.76 ± 0.49 h. Also, the “total protein half-life in vivo” value is, setting by setting: under setting [8], 2.03 h; under setting [9], 2.84 h; under setting [11], 3.67 ± 0.23 h; under setting [10], 7.5 ± 0.71 h.
